Reference: article PMC8093518, “PprA Protein Inhibits DNA Strand Exchange and ATP Hydrolysis of Deinococcus RecA and Regulates the Recombination in Gamma-Irradiated Cells” (Frontiers in Cell and Developmental Biology, 2021)
Residue numbers refer to the chain shown, from its start. Names may count otherwise.

Experiments:
[1] = biological target: T1, PprA (Deinococcus radiodurans R1 (ATCC 13939), UniProt O32504 1-300); experiment: EMSA; PprA 2 ug; EMSA: 0.2 pmol 32P probe in 10 ul, 10 mM Tris-HCl pH 7.5, 50 mM NaCl, 1 mM DTT, 10 min, 37 C; 12.5% native PAGE; conditions: protein: recombinant; tags: His-tag removed with Factor Xa (pET28a); label: 32P (polynucleotide kinase, 5' end)
T1 sequence: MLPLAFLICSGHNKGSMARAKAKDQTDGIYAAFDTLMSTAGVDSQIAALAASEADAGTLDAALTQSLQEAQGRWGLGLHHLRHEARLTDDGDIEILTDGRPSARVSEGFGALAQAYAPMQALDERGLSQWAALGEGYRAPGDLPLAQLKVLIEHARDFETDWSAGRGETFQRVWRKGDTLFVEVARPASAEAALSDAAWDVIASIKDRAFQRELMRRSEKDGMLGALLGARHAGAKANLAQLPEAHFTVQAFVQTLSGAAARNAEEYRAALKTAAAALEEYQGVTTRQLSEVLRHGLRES

[2] = biological target: T2, DrRecA (Deinococcus radiodurans R1 (ATCC 13939), UniProt P42443 1-363); experiment: EMSA; no PprA; DrRecA 0.5-2 ug; EMSA: 0.2 pmol 32P probe in 10 ul, 10 mM Tris-HCl pH 7.5, 50 mM NaCl, 1 mM DTT, 10 min, 37 C; 12.5% native PAGE; conditions: protein: recombinant, tags: His-tag removed with Factor Xa (pET28a), label: 32P (polynucleotide kinase, 5' end)
T2 sequence: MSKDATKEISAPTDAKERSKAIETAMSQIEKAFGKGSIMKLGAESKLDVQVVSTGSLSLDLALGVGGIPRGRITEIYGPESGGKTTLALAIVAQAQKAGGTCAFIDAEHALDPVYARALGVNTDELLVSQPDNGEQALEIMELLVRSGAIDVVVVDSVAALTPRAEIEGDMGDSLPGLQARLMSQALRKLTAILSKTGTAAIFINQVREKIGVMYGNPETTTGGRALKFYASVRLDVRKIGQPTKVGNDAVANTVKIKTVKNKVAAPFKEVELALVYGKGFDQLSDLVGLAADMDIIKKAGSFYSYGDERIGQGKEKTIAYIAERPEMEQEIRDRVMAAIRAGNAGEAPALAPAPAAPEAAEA

[3] = biological target: T1, PprA; experiment: EMSA; PprA 2 ug; band distinct from DrRecA-DNA; EMSA: 0.2 pmol 32P probe in 10 ul, 10 mM Tris-HCl pH 7.5, 50 mM NaCl, 1 mM DTT, 10 min, 37 C; 12.5% native PAGE; conditions: protein: recombinant; tags: His-tag removed with Factor Xa (pET28a); label: 32P (polynucleotide kinase, 5' end); blunt
[4] = biological target: T3, Recombinant DrRecA, purified (D. radiodurans, UniProt P42443 1-363); experiment: cross-linking; both proteins (approx. 5 μg each) mixed in HEPES buffer pH 7.6 for 10 min, 0.5% glutaraldehyde for 10 min, SDS-PAGE; with or without 1 kb dsDNA, DNase treatment; conditions: both partners purified
T3 construct: RecA of Deinococcus radiodurans, from plasmid pETrecA constructed earlier (Rajpurohit et al., 2016); His tag removed with Factor-Xa; also called pETrecA; source: E. coli BL21(DE3) pLysS, purified (Ni-chelating Sepharose, Q-sepharose, Heparin, Superdex-200)
T3 sequence (looked up): T2 sequence

TAATACAAAATAAGTAAATGAATAAACAGAGAAAATAAAG (ssDNA) [Oligo40-F 40-mer ssDNA]
binding result [1]: no binding
binding result [2]: binds

B1: Oligo40-F/Oligo40-R 40-mer dsDNA (dsDNA)
DNA 1: TAATACAAAATAAGTAAATGAATAAACAGAGAAAATAAAG
DNA 2: CTTTATTTTCTCTGTTTATTCATTTACTTATTTTGTATTA
binding result ([2]; blunt): binds
binding result [3]: binds

B2: Recombinant PprA, wild type, purified (natural protein, D. radiodurans, UniProt O32504 1-300, looked up)
chain: T1 sequence
notes: PprA of Deinococcus radiodurans, from plasmid pETpprA constructed earlier (Rajpurohit and Misra, 2013); His tag removed with Factor-Xa; also called PprA^wt; pETpprA; source: E. coli BL21(DE3) pLysS, purified (Ni-chelating Sepharose, Q-sepharose, Heparin, Superdex-200)
binding result [4]: binds

B3: PprA R166A mutant (natural protein, D. radiodurans, UniProt O32504 1-300, looked up)
chain: T1 sequence with R166A
notes: PprA of Deinococcus radiodurans with R166A, made with a site-directed mutagenesis kit
binding result [4]: binds

B4: PprA R212A mutant (natural protein, D. radiodurans, UniProt O32504 1-300, looked up)
chain: T1 sequence with R212A
notes: PprA of Deinococcus radiodurans with R212A, made with a site-directed mutagenesis kit; also called oligomer mutant
binding result [4]: binds
